Patent US20090075898A1, “Complement C3A Derived Peptides and Uses Thereof” (Yeda Research and Development Co. Ltd. at the Weizmann …, priority 2005, published 2009)

How the values were obtained:
[1] = system: bone marrow derived mast cells (BMMC); assay: Secretory response (β-hexosaminidase release) of bone marrow derived mast cells; assay type: cell-based, mouse
Procedure: Cells. Bone marrow derived mast cells (BMMC) were prepared from Balb/c mice as described by Nagao et al. (Science 212: 333-335, 1981). After 3 weeks, an approximately 95% pure mast cell population was obtained, showing high expression of FcεRI and stem cell factor receptor (c-kit), as measured by flow cytometry.
(§1) Secretory response of mast cells.
Similar experiments were carried out using bone-marrow derived mast cells (BMMC). […] The control peptide of the sequence DVSNYITR had no effect on either system.

[2] = system: rat peritoneal mast cells (RPMC); assay: Secretory response (β-hexosaminidase release) of rat peritoneal mast cells; assay type: cell-based; settings: non-sensitized cells, no antigen
Description: Rat peritoneal mast cells (RPMC) were isolated as previously described (Kim et al. J. Immunol. 162:4960-4965, […]). Mast cell preparations were ca. 95% pure, as evaluated by flow cytometric monitoring of FcεRI surface expression. Compound 48/80, a specific activator of serosal type mast cells elicited about 50% release of the total β-hexosaminidase content of the isolated rat peritoneal mast cells.
as §1
While mucosal type mast cells are non-responsive to peptidergic stimuli, the serosal type ones have been known for a long time to be stimulated by cationic secretagogues. The anaphylatoxic peptides C3a and C5a initiate the cells' secretory response by binding to their respective receptors expressed by serosal type mast cells. To investigate the effect of the peptides on this mast cell-type, RPMC were used. As expected, these cells did respond to both C5a and C3a (Table 2). However, degranulation was inhibited when peptides C3a7 or C3a9 were added to the IgE-sensitized RPMC and stimulated, 5 min later with a suboptimal antigen dose (Table 2).

[3] = system: RBL-2H3 cells; settings: Erdei et al. 1995, 1999; cited from earlier work
[4] = system: rat FcεRI β chain; assay: Surface plasmon resonance, immobilized extracellular loop peptides of rat FcεRI β chain; settings: SPR
[5] = system: human FcεRI β chain; assay: Surface plasmon resonance, immobilized extracellular loop peptides of human FcεRI β chain; settings: SPR

B1: C5a: complement activation product C5a, anaphylatoxic peptide, isolated; used as control (protein)
chain: TLQKKIEEIAAKYKHSVVKKCCYDGACVNNDETCEQRAARISLGPRCIKAFTECCVVASQLRANISHKDMQLGR
- Inhibition of IgE-mediated secretory response of BMMC [1]: had no effect
- Stimulation of secretory response of RPMC by the peptide itself [2]: did respond
- Inhibition of IgE-mediated degranulation of RBL-2H3 cells (literature) [3]: has no effect
- Reaction with any tested sequences (1st and 2nd loop) of rat FcεRI β-chain [4]: did not react
- Reaction with any tested sequences (1st and 2nd loop) of human FcεRI β-chain [5]: did not react
